The values that follow come from patent US20200010542A1 (MorphoSys, published 2020).

The target of assay [1] is T1, human IL-17C (human, UniProt Q9P0M4 19-197).
T1 sequence: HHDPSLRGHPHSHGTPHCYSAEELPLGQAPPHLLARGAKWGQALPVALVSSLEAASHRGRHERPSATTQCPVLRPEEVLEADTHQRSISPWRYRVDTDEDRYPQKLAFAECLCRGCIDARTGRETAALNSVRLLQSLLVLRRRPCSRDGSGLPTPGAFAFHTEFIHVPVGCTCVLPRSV
Kind of assay: cell-based or functional assay.

Assay [2] has as its target T2, mouse IL-17C (mouse, UniProt Q8K4C5 17-194).
T2 construct: R&D Systems #2306-ml-025 in the reporter assay; biotinylated in the screens; also called mIL-17C; mGT454
T2 sequence: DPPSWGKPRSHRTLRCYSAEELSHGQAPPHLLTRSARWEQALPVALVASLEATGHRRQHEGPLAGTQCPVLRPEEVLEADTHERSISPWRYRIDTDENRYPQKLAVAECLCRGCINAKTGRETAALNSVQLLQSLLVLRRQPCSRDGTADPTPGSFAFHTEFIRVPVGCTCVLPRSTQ
The experiment in a line: SET (ECL based), IgG, bivalent affinity, mGT454. As to the method:
(§1) Additionally monovalent Fab and bivalent IgG affinity was determined by SET. Therefore purified Fabs and IgGs were titrated on human or mouse IL-17C for EC₅₀ determination. The results confirmed the proposed avidity effect exerted by IgG antibodies forming mainly class III complexes.
(§2) Solution equilibrium titration (SET) was basically performed as described in the literature (Friquet et al., (1985) J. Immunol. Meth. 77: 305-19). In order to improve the sensitivity and accuracy of the SET method, it was transferred from classical ELISA to ECL based technology (Haenel et al. (2005) Anal Biochem. 339.1: 182-84).

In assay [3] the target is T1, human IL-17C. Kind of assay: SET (ECL based), IgG, bivalent affinity, hGT454. As for the experimental part: as §1, §2
In assay [4] the target is T3, cynomolgus IL-17C (cynomolgus monkey, UniProt Q9P0M4 19-197 (human entry), limits assumed).
T3 chain: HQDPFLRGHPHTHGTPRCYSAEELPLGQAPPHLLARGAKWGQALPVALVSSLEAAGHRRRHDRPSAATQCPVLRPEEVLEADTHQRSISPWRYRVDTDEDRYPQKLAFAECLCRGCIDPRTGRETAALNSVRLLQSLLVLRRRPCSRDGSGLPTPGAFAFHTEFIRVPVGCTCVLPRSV
The experiment in a line: cell-based or functional assay.

In assay [5] the target is T2, mouse IL-17C. Kind of assay: cell-based or functional assay.
Assay [6] deals with T1, human IL-17C. The experiment in a line: cell-based or functional assay. This is another data set of the same source.
The target in assay [7] is T1, human IL-17C. Kind of assay: MSD receptor binding inhibition: IgG with biotinylated IL-17C on coated IL17RE/Fc (head: hIL-17C-hIL17RE; text: mouse IL17RE/Fc). As to the method:
Purified IL-17C specific IgGs were tested in mIL-17 RE interaction assay. Therefore MA6000 384 well plates (Meso Scale Discovery, MSD) were coated with 30 μl mouse IL17RE/Fc chimeric protein at 75 ng/ml in PBS at 4° C. overnight. The next day a serial antibody dilution (concentrations from 0.001 to 100 nM) were pre-incubated for 30 min at RT with an equal volume of biotinylated IL-17C. After blocking of plates for 1 h with 2.5% BSA in PBST, previously formed antibody-ligand complexes were added for 1 h to coated IL17RE/Fc and receptor binding was detected via Streptavidin-ECL using MSD Sector Imager.

Assay [8] concerns the target T1, human IL-17C. The experiment in a line: SET (ECL based), Fab, monovalent affinity, hGT454. As to the method:
as §1, §2

Assay [9] addresses T2, mouse IL-17C. Kind of assay: SET (ECL based), Fab, monovalent affinity, mGT454. As for the experimental part:
as §1, §2

The term EC50 denotes the concentration giving half of the maximal effect. Read a low EC50 as higher potency in that assay. The term IC50 denotes the midpoint of a concentration-inhibition curve.

B1: mab_1 (IgG1) (antibody, V domains shown)
VH: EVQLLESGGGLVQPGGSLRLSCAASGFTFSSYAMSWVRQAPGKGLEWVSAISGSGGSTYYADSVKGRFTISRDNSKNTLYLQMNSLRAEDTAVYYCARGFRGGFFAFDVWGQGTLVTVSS
VL: SYELTQPPSVSVSPGQTASITCSGDKLGDKYAYWYQQKPGQSPVLVIYQDSKRPSGIPERFSGSNSGNTATLTISGTQAEDEADYYCQAWTFPLLTWVFGGGTKLTVLG
notes: Human IgG1 from the Ylanthia library, VH3-23 / Vlambda3-1, made in HKB11 cells
As to B1, in [1], the “NHEK assay IC50 [pM] (expression of DEFB4A)” value came to 415 pM. The EC50 in assay [2] was 0.15 nM; in assay [3], 0.017 nM. The “NF-kB reporter gene assay (IgG) IC50 [pM]” value in assay [4] stood at 24 pM; in assay [5] it was 46 pM; in assay [6], 29 pM. Further, the half-inhibitory concentration (IC50) in [7] turned out to be 0.04 nM.

B2: mab_1 Fab (Fab, V domains shown)
VH: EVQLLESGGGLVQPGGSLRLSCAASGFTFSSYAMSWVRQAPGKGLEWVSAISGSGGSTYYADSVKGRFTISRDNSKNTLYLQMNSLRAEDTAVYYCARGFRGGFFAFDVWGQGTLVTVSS
VL: SYELTQPPSVSVSPGQTASITCSGDKLGDKYAYWYQQKPGQSPVLVIYQDSKRPSGIPERFSGSNSGNTATLTISGTQAEDEADYYCQAWTFPLLTWVFGGGTKLTVLG
notes: His-tagged Fab made in E. coli; also called mab_1 (Fab format)
For the molecule B2, the values for the 50% effective concentration (EC50) in assay [8] and in [9] were 4.8 nM and 72 nM, respectively.

B3: mab_8 Fab (Fab, V domains shown)
VH: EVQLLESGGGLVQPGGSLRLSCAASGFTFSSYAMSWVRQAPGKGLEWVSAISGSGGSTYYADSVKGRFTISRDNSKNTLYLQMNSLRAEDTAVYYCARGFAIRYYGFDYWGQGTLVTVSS
VL: SYELTQPPSVSVSPGQTASITCSGDKLGDKYAYWYQQKPGQSPVLVIYQDSKRPSGIPERFSGSNSGNTATLTISGTQAEDEADYYCQVFTFPLVTTVFGGGTKLTVLG
notes: His-tagged Fab made in E. coli; also called mab_8 (Fab format)
With B3, the 50% effective concentration (EC50) in assay [8] was 2.7 nM; in assay [9], 490 nM.

B4: mab_8 (IgG1) (antibody, V domains shown)
VH: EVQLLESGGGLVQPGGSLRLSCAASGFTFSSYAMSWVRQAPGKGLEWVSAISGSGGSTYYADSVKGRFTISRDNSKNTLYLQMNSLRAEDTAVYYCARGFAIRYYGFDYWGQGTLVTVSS
VL: SYELTQPPSVSVSPGQTASITCSGDKLGDKYAYWYQQKPGQSPVLVIYQDSKRPSGIPERFSGSNSGNTATLTISGTQAEDEADYYCQVFTFPLVTTVFGGGTKLTVLG
notes: as for B1
For B4, the “NHEK assay IC50 [pM] (expression of DEFB4A)” value in assay [1] was 93 pM. Further, the concentration giving a half-maximal response (EC50) in assay [2] was found to be 3.35 nM; in assay [3], 0.022 nM. Further, the “NF-kB reporter gene assay (IgG) IC50 [pM]” value in [4] came out at 39 pM; in assay [5], 1770 pM; in assay [6] it was 42 pM. Moreover, in assay [7], the IC50 is 0.13 nM.
